Measured values published in US20260347474 (published 2026).

Target: human PD1-6His (human)
Assay: ELISA

Chain of human PD1-6His (human) (chain, as listed by the source): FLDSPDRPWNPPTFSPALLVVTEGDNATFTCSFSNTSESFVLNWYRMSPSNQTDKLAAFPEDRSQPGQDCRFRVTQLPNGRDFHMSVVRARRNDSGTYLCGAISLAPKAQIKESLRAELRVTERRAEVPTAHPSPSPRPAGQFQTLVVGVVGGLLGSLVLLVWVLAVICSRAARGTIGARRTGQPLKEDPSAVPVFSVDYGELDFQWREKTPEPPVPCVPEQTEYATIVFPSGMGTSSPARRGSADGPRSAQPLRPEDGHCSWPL

Binder	EC50
P-1150 (antibody, V domains shown) VH: QVQLVQSGVEVKKPGASVKVSCKASGYTFTNYYMYWVRQAPGQGLEWMGGINPSNGGTNFAQKFQGRVTLTTDSSTTTAYMELKSLQFDDTAVYYCARRDYRFDMGFDYWGQGTTVTVSS VL: EIVLTQSPATLSLSPGERATLSCRASQGVSTSGYSYLAWYQQKPGQAPRLLIYLASYRASGVPARFSGSGSGTDFTLTISSLEPEDFAVYYCQHSRDLPLTFGGGTKVEIKR	0.088 nM
P-1148 (antibody, V domains shown) VH: QVQLVQSGVEVKKPGASVKVSCKASGYTFTNYYMYWVRQAPGQGLEWMGGINPSNGGTNFAQKFQGRVTLTTDSSTTTAYMELKSLQFDDTAVYYCARRDYRFDMGFDYWGQGTTVTVSS VL: EIVLTQSPATLSLSPGERATLSCRASQGVSTSGYSYLHWYQQKPGQAPRLLIYLASYRASGVPARFSGSGSGTDFTLTISSLEPEDFAVYYCQHSRDLPLTFGGGTKVEIKR	0.093 nM

Next, values leading:

EC50	Binder
0.11 nM	P-1153 (antibody, V domains shown) VH: QVQLVQSGVEVKKPGASVKVSCKASGYTFTNYYMYWVRQAPGQGLEWMGGINPSNGGTNYAQKFQGRVTLTTDSSTTTAYMELKSLQFDDTAVYYCARRDYRFDMGFDYWGQGTTVTVSS VL: EIVLTQSPATLSLSPGERATLSCRASQGVSTSGYSYLAWYQQKPGQAPRLLIYLASYRASGVPARFSGSGSGTDFTLTISSLEPEDFAVYYCQHSRDLPLTFGGGTKVEIKR
0.065 nM	P-1151 (antibody, V domains shown) VH: QVQLVQSGVEVKKPGASVKVSCKASGYTFTNYYMYWVRQAPGQGLEWMGGINPSNGGTNYAQKFQGRVTLTTDSSTTTAYMELKSLQFDDTAVYYCARRDYRFDMGFDYWGQGTTVTVSS VL: EIVLTQSPATLSLSPGERATLSCRASQGVSTSGYSYLHWYQQKPGQAPRLLIYLASYRASGVPARFSGSGSGTDFTLTISSLEPEDFAVYYCQHSRDLPLTFGGGTKVEIKR
